# Reference: the DeepSol protein solubility set
# Test: soluble on expression in E. coli; label from the status in PepcDB or PDB records
row,Sequence,soluble on expression in E. coli
1,MSLRATWGDVRQGLWMSLTRAGLLHLNADPDPKNWRPHILVLSGAPRRRWPVIELASALTHNQALMTVGTVLRPSEASDFEAQREAEATLREYLGSRGVQSLVRTTTAEDPFAGGERLIEDYGLGVLKPNTIMLGHTEDPTHHEQFCTLIKHLYAARRNVAVLRGGNQGFGNRERIDVWWSGLKGNGGLMKILAYLLQTNLEWQNAQVRVNVVADDDEEAEEQRQTVGPILDQLRTGAALNVIEADGRIFDEIVHDASADADIVFLGMATPDEEGDYVTYYTRLHERTAGLPPTVFVLAAEEISFRDVLALEHHHHHH,not soluble
2,MSMFGKVAADVLGLSDIGSVIQPKDYDKVDADDYVMHEDGEKIYFLIKSKSDEYCFTNRALIHLDGTSAASKKRTLRRYDYYKHPISDVSLETAGTVDLDAEIKFKIGPHSYSIDVHKKHIEELKDLYKSLLAIAEICHENEMKFHYAERSLELATKVFANMRGDGANVSADFQAVNEYAFRWLTEAKKNYTVKDFGFVFDKYIQQ,not soluble
3,AIAEAAVDWYDFWNYYYLGKYQAANDVCTTLLEPNQWPRSVLLAVIRLRLALRDLEGIRALRNLVNDTWTSSVIHELIETLQKNVPPIDDGERLRSVVFGDGSALDAVDEAGRLLAALALQRAGLYLDALETLPLSRCENDAESRACRICLWLHLNRLDRAQLEQQALEHWFERQLADGDQRAVGTLVQLSRATLAVASNDAEDVAIEAALRSCRDLAERYGPSTKLLNLTYLCLVRLGRTEASESTLQQAMNLDAQDPDTMANTAASAAKTSMMMMAFPEAATATQRPIEYLRKYAPWHPWIRAQDDFERKLRGLAT,soluble
4,MYRAGAVLLRGATRTRLLAAASAHQSFATFSQRNQSILMMKSMELAGNSGERRFYSTHDDPIAVDDSLELYKDLGGMSPIQVPADMPNVPMLAINRYPLFPGFIKKVDIVKDDNLKALIRRQLSLKQPYAGVFVKRDDENKEETITSLSEVYPTGSFVQIIEVRDQGSVLELVLSAHRRIRALEPIDEITPKNETPLNGRRARGKRAASATSPLTPPPSPPPLAPSVASVAPEISATEEKEEKTTPPSATGEKQKKGIIMVRTENVVAEPVPKNNETKATMMAIVQTIRDVVQFNQLFGQQINLLLHPSQNVIDNPVYLCDLVATLVQSAETKDLQEMMDEIDVSKRLKIALLLIQKEKAVAKLKYDINKDVEKKVQDHHRKYLLNEQLKVIKKELGIEKDEKTTIIEKIDERIKTLAVPEYALKVINEEKTKLQFLDPHSSEFSVTRNYLEWLTSVPWGLTSPENRRLSVAKKALDEGHYGMKDVKERIMEFIAVNLLRKSIGGKILCFHGPPGVGKTSIAKSIATALNREYFRFSVGGMTDVAEIKGHRRTYVGAMPGKMIQCMKKVKTENPLVLIDEVDKIGGAGFHGDPASALLELLDPEQNANFNDHFLDVPVDLSRVLFICTANEISKIPGPLRDRMEMIDVSGYLAEEKVEIAHQHLIPQLRKDTSLATEQLKIEDSALEELIKHYCRESGVRNLQQHIERIFRKAALQIAEQQNEDEEPAEKATTAITENSEAEPITSTSSADCLKSSAEQIVVCTENLQKFVGRPKFTSDRMYEVTPPGVIMGLAWTAMGGSALYIETVLKRPVDLTNDKDGSIETTGNLGDVMKESVRTALTVAKGILAREQPDNKFFDKAHIHIHVPEGATPKDGPSAGVTLVSSLLSLALDRPVVQDMAMTGEISLTGKVLPVGGIREKVIAARRVGAKRVFLPNENRRDFDDLPEFMKSELDIRFVSHYDELYEHLFQ,not soluble
5,MLETNVDQKSFKFKIVLLGEGCVGKSSLVLRFVENKFSCKHLSTIQASFQNKTVNVEDCQADLHIWDTAGQEKYHALGPIYYRGSNGVLLVFDITDRKSFEKVKNWVLEIKTCLGNTAEILIVGNKIDLEEERQVTRQDAEAYAESEGALYMETSAQDNVGISDAFESLTAKMIEHSRTRSTEPPSTNRSIRLIDNDEAERSKKCCR,not soluble
6,MAGIAMKLAKDREAAEGLGSHERAIKYLNQDYETLRNECLEAGALFQDPAFPPVSHSLGFKELGPNSSKTYGIKWKRPTELLSNPQFIVDGATRTDICQGALGDSWLLAAIASLTLNETILHRVVPYGQSFQEGYAGIFHFQLWQFGEWVDVVVDDLLPTKDGKLVFVHSAQGNEFWSALLEKAYAKVNGSYEALSGGCTSEAFEDFTGGVTEWYDLQKAPSDLYQIILKALERGSLLGCSINISDIRDLEAITFKNLVRGHAYSVTDAKQVTYQGQRVNLIRMRNPWGEVEWKGPWSDNSYEWNKVDPYEREQLRVKMEDGEFWMSFRDFIREFTKLEICNLTPDALKSRTLRNWNTTFYEGTWRRGSTAGGCRNYPATFWVNPQFKIRLEEVDDADDYDSRESGCSFLLALMQKHRRRERRFGRDMETIGFAVYQVPRELAGQPVHLKRDFFLANASRAQSEHFINLREVSNRIRLPPGEYIVVPSTFEPNKEGDFLLRFFSEKKAGTQELDDQIQANLPDEKVLSEEEIDDNFKTLFSKLAGDDMEISVKELQTILNRIISKHKDLRTNGFSLESCRSMVNLMDRDGNGKLGLVEFNILWNRIRNYLTIFRKFDLDKSGSMSAYEMRMAIEAAGFKLPCQLHQVIVARFADDELIIDFDNFVRCLVRLEILFKIFKQLDPENTGTIQLDLISWLSFSVLGKLAAAIEHHHHHHMHYSNIEANESEEERQFRKLFVQLAGDDMEVSATELMNILNKVVTRHPDLKTDGFGIDTCRSMVAVMDSDTTGKLGFEEFKYLWNNIKKWQGIYKRFETDRSGTIGSNELPGAFEAAGFHLNQHIYSMIIRRYSDETGNMDFDNFISCLVRLDAMFRAFRSLDKNGTGQIQVNIQEWLQLTMYS,soluble
7,MKNPQSKADDILQCARTLIIRGGYNSFSYADISQVVGIRNASIHHHFPSKSDLVCKLVSQYRQEAEAGIAELEKNISDPLEQLRAYIGYWEGCIADATHPFCVCALLASEIPVLPETVVLEVRAHFRSLSDWLTAVLERGIAQGRLVLTGTARANAEIFMATVHGAMLSARAHGDAATFGAITRPMLERITA,soluble
8,MGSDKIHHHHHHMKIYCSKDSLITGVNTVQKAVSNKNTLPVLQGIMIRAEGQSLIFEATDLEIGIRCVVPAQVEKEGVVVLPSRLFSDLVCKLPDVLIELELQNDVINIHYNESDLSLRGYDPEEFPLLPDLFDAETFNLPVSIFKTMIKQTIFACSAEESRPVFTGCLLQIEDGSLRLIATDTHRLAYRIAEISNPEQIKFQGIIPAKTLGEIYRLLRDEDENLFIRFNQAQIVFQFGAVHLLSRLIEGQFPNYKQVIPQSCQTKVLLSARLFQDSVERASLLARDGSHTSIIKLSVDTERLSIDQTSELGKISEQMEVKKEGNDVKIAFNSKFLLDVLKIIDSEEIVFELSGSYSPGIIRPVDDPNYLYLALPVRTS,not soluble
9,VQERIKACFTESIQTQIAAAEALPDAISRAAMTLVQSLLNGNKILCCGNGTSAANAQHFAASMINRFETERPSLPAIALNTDNVVLTAIANDRLHDEVYAKQVRALGHAGDVLLAISTRGNSRDIVKAVEAAVTRDMTIVALTGYDGGELAGLLGPQDVEIRIPSHRSARIQEMHMLTVNCLCDLIDNTLFPHQDD,soluble
10,MLHKEKPDYNRNQYGFYTLDQLVPDEHFLRQVEAVIDFDFIYDLVEDTYSSDNGRPSLDPVMLVKIPLIQCFYGIRSMRQTIKDIEVNTAYRWFLGLTLDDKVPHFTTYGKNYSRRFQEKGLIESIFTHIVGLCINTGLIDPTEIFIDGTHIKAAANNRKFINREVEKQAKFMSEQLEIEINRDREKHGKKPLGPAKELEPVAKKISTTDPESGWFHKGDHKEVFAYSAQVACDKYGWALAYSVEAGNIHDSQAFPALFAKLEPLKPQFIIADSGYNVPSIAKFLIDKEITPVLPYTRPRGKKDLLRPKELIYDEHFDCVICPEHQALTYRTTTREGYREYKSDPVICANCPLLSVCTTSKNYQKVVTRHIWKDYLAQPRNTTISAIRERKASPKWKIRLD,not soluble
11,MSKFAERLQTVANKPEVFQKFSRGLERESLRYTPEGALTQTPHPKALGAALTHRWITTDFAESLLEFITPVSHEVDTLLAQMSDIHHFAQTKLGDEKLWPLSMPCYVGSEEGIVLAQYGSSNTGKMKTLYREGLKRRYGSLMQIISGVHFNFSFPESFWDALFGEQEESARQASKSAAYFGVIRNYYRFGWLIPYLFGASPALCSSFLQGRKTDLPFESIGKTLYLPYATSLRLSDLGYTNSAQSVLQIGFNSIEQYLQGLNEAIRTPSAEFAKLGVKVEGEYRQLNSNVLQIENELYAPIRPKRVTQSGERPSQALARAGVEYIEVRSLDVNPFSPIGINEDQVRFLDLFLAWTALSDSDPMDGCELACWRDNWRKVVLEGRKPGLELQIGCHGEVLTLQAWAKRVFADLRVIAETMDAALGGDAYQAVCAKLETWIENPELTLSAQILAEIKQHGGLGKTGCALGNEYRAVNLQHQYQFYSQDEMEQEVRRSTQAQADIEAKETLNFDAYLTQYFAYLQAVS,not soluble
12,MAASIELFEQNGFSETSIQDIVDALGVTKGTFYYYFTSKEELLMDIHLRYIERLLDEEERIISDKRRSVQEKLYDIIFMLIHNVERQGREARIFFREMKHLNEEHLQKVKEKRDLFRYRLQSLIEEGMKSGELRCDLSPSIATLTVLGAANWSYQWFRPDGELTDAEVAKQMVEILLDGMSAPSVSKAE,not soluble
13,MGSSHHHHHHSSGLVPRGSHMALSRGLPRELAEAVAGGRVLVVGAGGIGCELLKNLVLTGFSHIDLIDLDTIDVSNLNRQFLFQKKHVGRSKAQVAKESVLQFYPKANIVAYHDSIMNPDYNVEFFRQFILVMNALDNRAARNHVNRMCLAADVPLIESGTAGYLGQVTTIKKGVTECYECHPKPTQRTFPGCTIRNTPSEPIHCIVWAKYLFNQLFGEEDADQEVSPDRADPEAAWEPTEAEARARACNEDGDIKRISTKEWAKSTGYDPVKLFTKLFKDDIRYLLTMDKLWRKRKPPVPLDWAEVQSQGEETNASDQQNEPQLGLKDQQVLDVKSYARLFSKSIETLRVHLAEKGDGAELIWDKDDPSAMDFVTSAANLRMHIFSMNMKSRFDIKSMAGNIIPAIATTNAVIAGLIVLEGLKILSGKIDQCRTIFLNKQPNPRKKLLVPCALDPPNPNCYVCASKPEVTVRLNVHKVTVLTLQDKIVKEKFAMVAPDVQIEDGKGTILISSEEGETEANNHKKLSEFGIRNGSRLQADDFLQDYTLLINILHSEDLGKDVEFEVVGDAPEKVGPKQAEDAAKSITNGSDDGAQPSTSTAQEQDDVLIVDSDEEDSSNNADVSEEERSRKRKLDEKENLSAKRSRIEQKEELDDVIALD,soluble
14,SLSKKATYPKVMCTQHPDSASKYISTQEEPGEAIEAAVVFGCDEYMPDYEGKATPYHQNVQIVSRFIEETDLIPGKDIFITPRAPSAAQENRFRQLMVMMSIAEANHGALEYSDVQAINEFVHPMTGTVGEILDAQQHMVDVGELAKKEFGVAMEVPRIIPLIEDAPALLHAKELAENTLLSWEKRFGAAPEKFRVFLGKSDSALSFGHVASTLSCKYAISGISELDLELDTSTGIIFGAGTLPFRGHLSLKNAENFFREYRGIGTITLQSAVRYSHDKGEAEALVRLAEERLPESPEIYSGEEKEEIVNLIGIFGARYNRIIREMSCTINQLAGLLPQQRDRLMHKGTGGYSRNVPDISGLVCLCRKDVGKELSASMPAEDLNLPRAIKFTGALYSIGLPPEFIGTGTALEEAREKLGEEACERLLKKYFPSLASDLSFASGYLDLNVASRFLPEACLKEIRKDIEVLRDTFSLKVQPEPSYRILLEMMQPDLLQAGTKGNCMDEEVSQLVCSTLTKMGKIRKALG,not soluble
15,MSNAIEINELHWLLAVTQNIDVGIVVLDLNYRVTVWNTFMENRSGVVPYVAIDKTFFELFPEVNRQWLSKKIDNVVTLGTPAFTIWEQRPYLVRFKNYQPITGHEEFMYQNTTLFPLRSTTGAISHVCLVIYDVTDVAANRN,not soluble
